The labels stand for the following.
B1: SEQ ID NO 232 (designed binder, not shown: small tags and cut ends)
chain: MLPAPKNLVVSRVTEDSARLSWTAPDAAFDSFFIGYLEPQPPGEAIYLDVPGSERSYDLTGLKPGTEYNVTIQGVKGGFPSTFTT
B2: SEQ ID NO 222 (designed binder, not shown: small tags and cut ends)
chain: MLPAPKNLVVSRVTEDSARLSWTAPDAAFDSFFIGYLEPQPPGEAIVLDVPGSERSYDLTGLKPGTEYNVTIQGVKGGFPSHPLAAAFTT
B3: SEQ ID NO 223 (designed binder, not shown: small tags and cut ends)
chain: B2 chain with V47G, D49A, H82V, A85Q, A87N
B4: SEQ ID NO 231 (designed binder, not shown: small tags and cut ends)
chain: B2 chain with V47H, D49Y, H82D, A85D, A87V
B5: SEQ ID NO 235 (designed binder, not shown: small tags and cut ends)
chain: B2 chain with V47Q, D49T, H82L, A85S, A87D
B6: SEQ ID NO 238 (designed binder, not shown: small tags and cut ends)
chain: MLPAPKNLVVSRVTEDSARLSWTTPDAAFDSFYIAYAEPRPDGEAIRLQVPGSERSYDLTGLKPGTEYSVLIHGVKGGLLSSPLGFTT
B7: SEQ ID NO 224 (designed binder, not shown: small tags and cut ends)
chain: MLPAPKNLVVSRVTEDSARLSWTAPDAAFDSFYIAYAEPRPDGEAILLRVPGSERSYDLTGLKPGTEYSVLIHGVKGGLLSSPLVAEFTT
B8: SEQ ID NO 227 (designed binder, not shown: small tags and cut ends)
chain: B7 chain with L47G, V85S, E87I
B9: SEQ ID NO 229 (designed binder, not shown: small tags and cut ends)
chain: B7 chain with L47Q, R49L, E87H
B10: SEQ ID NO 225 (designed binder, not shown: small tags and cut ends)
chain: B7 chain with R49Q, V85S, E87S
B11: SEQ ID NO 230 (designed binder, not shown: small tags and cut ends)
chain: B7 chain with L47W, R49L, E87F
B12: SEQ ID NO 234 (designed binder, not shown: small tags and cut ends)
chain: B7 chain with L47V, R49V, V85S, E87I
B13: SEQ ID NO 239 (designed binder, not shown: small tags and cut ends)
chain: B7 chain with L47Q, R49V, V85Y, E87I
B14: SEQ ID NO 240 (designed binder, not shown: small tags and cut ends)
chain: B7 chain with L47S, R49S, V85H, E87K
B15: SEQ ID NO 226 (designed binder, not shown: small tags and cut ends)
chain: B7 chain with L47G, R49H, V85T, E87S
B16: SEQ ID NO 233 (designed binder, not shown: small tags and cut ends)
chain: B7 chain with L47Q, R49F, V85K, E87Y
B17: SEQ ID NO 228 (designed binder, not shown: small tags and cut ends)
chain: B7 chain with L47V, V85A, E87S
B18: SEQ ID NO 237 (designed binder, not shown: small tags and cut ends)
chain: B7 chain with L47V, R49A, V85Y, E87S
B19: SEQ ID NO 236 (designed binder, not shown: small tags and cut ends)
chain: B7 chain with R49Q, V85D
B20: SEQ ID NO 221 (designed binder, not shown: small tags and cut ends)
chain: MLPAPKNLVVSRVTEDSARLSWTAPDAAFDSFFIGYLEPQPPGEAIFLDVPGSERSYDLTGLKPGTEYNVTIQGVKGGFPSPLTAFFTT

Residue numbers refer to the chain shown, from its start.

In this test the target is human serum albumin (human) (UniProt P02768). Put plainly: solution ELISA screen (luminescence). A general note: An ELISA detects its analyte on a solid surface through an enzyme-linked reagent.
human serum albumin (human), sequence (P02768 25-609 limits assumed): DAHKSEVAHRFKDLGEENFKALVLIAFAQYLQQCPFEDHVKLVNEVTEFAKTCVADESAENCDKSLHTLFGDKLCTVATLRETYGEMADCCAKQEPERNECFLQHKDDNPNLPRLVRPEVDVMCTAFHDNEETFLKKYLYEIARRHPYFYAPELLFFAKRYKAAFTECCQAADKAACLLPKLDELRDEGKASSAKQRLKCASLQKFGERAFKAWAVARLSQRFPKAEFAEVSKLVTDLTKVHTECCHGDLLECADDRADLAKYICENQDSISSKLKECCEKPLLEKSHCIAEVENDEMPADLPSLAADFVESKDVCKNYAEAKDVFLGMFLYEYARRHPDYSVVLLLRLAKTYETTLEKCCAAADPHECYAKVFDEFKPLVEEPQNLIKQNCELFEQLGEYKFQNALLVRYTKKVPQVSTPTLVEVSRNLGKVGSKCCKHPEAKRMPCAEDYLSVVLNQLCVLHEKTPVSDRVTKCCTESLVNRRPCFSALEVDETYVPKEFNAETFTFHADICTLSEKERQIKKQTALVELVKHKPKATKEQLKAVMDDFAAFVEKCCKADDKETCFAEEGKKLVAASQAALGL
Molecule B1 showed an RLU of 75400 RLU.
The same measure for B2: 15600 RLU.
With B3 the figure was 18300 RLU; with B4, 20600 RLU; with B5, 23800 RLU.
As for B6, the RLU is 99000 RLU.
B7 returned an RLU of 26200 RLU.
The same measure for B8: 28200 RLU; for B9: 15400 RLU; for B10: 17000 RLU.
The molecule B11 yielded an RLU of 32000 RLU.
With B12 the figure was 20800 RLU.
The same measure for B13: 21100 RLU; for B14: 18000 RLU.
In turn, B15 gave an RLU of 16000 RLU.
On to B16, for which the RLU worked out at 22000 RLU.
With B17 the figure was 29600 RLU.
The same measure for B18: 27700 RLU.
With B19 the figure was 15600 RLU; with B20, 59000 RLU.

These data come from patent US20220332795A1.
